Patent publication US20110262748A1

Legend:
[1] = target: human IgG antibody (manufactured by Lampire Biological Laboratories) (human); test: column breakthrough binding capacity of human IgG, protein A on crosslinked agarose, 150 cm/hr
[2] = target: human IgG antibody (manufactured by Lampire Biological Laboratories) (human); test: column breakthrough binding capacity of human IgG, protein A on crosslinked agarose, 500 cm/hr

With “protein A immobilized on crosslinked agarose (MabSelect Xtra, GE Healthcare Biosciences) (from UniProt P38507 37-327)” the binding capacity [1] was 25 mg/mL and the binding capacity [2] was 12 mg/mL.
